The record followed here is publication PMC3912326.

The term Kd denotes the concentration at which binding is half-saturated. Lower therefore signals higher affinity.

Common to all, as to assay: fluorescence anisotropy
For series [1], the target named is T1, mouse transferrin receptor (mTfR) (Mus musculus, UniProt Q62351 89-763).
Series [2] deals with human transferrin receptor (hTfR) (Homo sapiens, UniProt P02786 89-760).
Series [3] deals with T1, mouse transferrin receptor (mTfR). The source holds these as a separate data set.
In the next series the target is transferrin (Tf) (UniProt P02787 20-698).
transferrin (Tf), sequence (P02787 20-698): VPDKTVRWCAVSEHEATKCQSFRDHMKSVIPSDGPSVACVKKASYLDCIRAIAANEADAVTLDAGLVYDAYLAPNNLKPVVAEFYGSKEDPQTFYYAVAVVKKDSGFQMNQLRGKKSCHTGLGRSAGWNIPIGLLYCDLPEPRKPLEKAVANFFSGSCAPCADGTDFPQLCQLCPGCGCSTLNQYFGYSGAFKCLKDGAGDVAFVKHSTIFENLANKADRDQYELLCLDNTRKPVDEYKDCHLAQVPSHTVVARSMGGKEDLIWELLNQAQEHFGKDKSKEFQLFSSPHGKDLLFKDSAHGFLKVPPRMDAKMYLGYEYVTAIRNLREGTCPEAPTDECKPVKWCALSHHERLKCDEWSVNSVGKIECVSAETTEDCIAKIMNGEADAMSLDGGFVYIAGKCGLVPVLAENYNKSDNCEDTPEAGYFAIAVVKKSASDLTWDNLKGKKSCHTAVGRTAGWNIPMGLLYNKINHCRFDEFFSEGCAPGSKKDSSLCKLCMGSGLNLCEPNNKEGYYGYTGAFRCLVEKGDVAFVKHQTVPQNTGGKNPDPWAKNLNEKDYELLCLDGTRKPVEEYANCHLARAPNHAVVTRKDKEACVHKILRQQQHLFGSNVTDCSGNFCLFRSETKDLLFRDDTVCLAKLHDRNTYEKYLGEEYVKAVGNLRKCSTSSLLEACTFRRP
The target in series [4] is T1, mouse transferrin receptor (mTfR). The source holds these as a separate data set.

Like-named read-outs stand apart in the source and are kept apart here.

T1 sequence (Q62351 89-763): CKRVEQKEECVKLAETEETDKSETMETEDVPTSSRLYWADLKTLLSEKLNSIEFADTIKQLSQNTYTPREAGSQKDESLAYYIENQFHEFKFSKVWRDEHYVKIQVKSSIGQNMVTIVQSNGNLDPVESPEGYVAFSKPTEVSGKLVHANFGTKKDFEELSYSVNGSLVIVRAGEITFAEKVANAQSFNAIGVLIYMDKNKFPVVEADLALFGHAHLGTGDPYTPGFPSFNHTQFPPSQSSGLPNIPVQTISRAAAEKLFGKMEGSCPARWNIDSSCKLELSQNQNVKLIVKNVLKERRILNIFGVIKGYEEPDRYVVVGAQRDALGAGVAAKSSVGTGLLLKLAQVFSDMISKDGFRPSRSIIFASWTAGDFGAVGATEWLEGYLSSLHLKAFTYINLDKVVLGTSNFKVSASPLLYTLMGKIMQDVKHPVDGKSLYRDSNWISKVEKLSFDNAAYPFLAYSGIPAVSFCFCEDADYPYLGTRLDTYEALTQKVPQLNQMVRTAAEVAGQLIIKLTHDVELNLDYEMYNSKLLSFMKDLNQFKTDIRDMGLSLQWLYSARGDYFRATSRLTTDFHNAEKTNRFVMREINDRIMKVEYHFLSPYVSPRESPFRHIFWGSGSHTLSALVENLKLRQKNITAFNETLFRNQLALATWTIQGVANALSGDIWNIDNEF
human transferrin receptor (hTfR), sequence (P02786 89-760): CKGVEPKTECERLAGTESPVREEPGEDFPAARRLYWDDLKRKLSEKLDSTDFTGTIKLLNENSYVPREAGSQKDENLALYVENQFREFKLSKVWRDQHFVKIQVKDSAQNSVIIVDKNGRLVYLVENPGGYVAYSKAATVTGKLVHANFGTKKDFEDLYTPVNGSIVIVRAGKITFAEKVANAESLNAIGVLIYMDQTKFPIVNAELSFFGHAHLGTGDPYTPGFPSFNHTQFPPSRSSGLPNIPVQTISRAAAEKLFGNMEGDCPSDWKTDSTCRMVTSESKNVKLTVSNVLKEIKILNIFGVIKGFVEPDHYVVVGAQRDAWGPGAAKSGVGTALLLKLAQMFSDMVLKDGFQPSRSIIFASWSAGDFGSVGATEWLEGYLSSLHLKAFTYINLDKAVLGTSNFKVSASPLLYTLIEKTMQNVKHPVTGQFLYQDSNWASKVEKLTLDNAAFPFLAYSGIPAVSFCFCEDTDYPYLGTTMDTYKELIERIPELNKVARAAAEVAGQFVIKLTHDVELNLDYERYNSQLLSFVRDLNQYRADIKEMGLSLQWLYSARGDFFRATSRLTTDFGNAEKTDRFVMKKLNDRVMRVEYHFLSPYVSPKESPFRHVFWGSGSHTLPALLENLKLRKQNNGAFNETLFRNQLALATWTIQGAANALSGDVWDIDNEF

On to CACTTAGTATCGCTACGTTCTTTGGTTCCGTTCGG (structured_DNA, 5' amino C6 linker) [GS24min], for which binding in series [1] was characterised by a dissociation constant (Kd) of 1200 ± 390 nM.

Regarding GCGTGTGCACACGGTCACTTAGTATCGCTACGTTCTTTGGTTCCGTTCGG (structured_DNA, 5' amino C6 linker) [GS24 (equilibrium mixture A-1F:A-2F 20:80)], the Kd in series [2] worked out at 1000 ± 250 nM; in series [3] it was 250 ± 40 nM. The binding result with transferrin (Tf) is recorded as “no binding”.

On to GCGTGTGCACACGGTCACTTAGTATCGCTACGTTCTTTGGTTCCGTTCGG (structured_DNA, 5' amino C6 linker) [GS24 fold A-2F (purified active fold)], for which binding in series [4] was characterised by a dissociation constant (Kd) of 130 ± 30 nM.
